From patent US20190249141A1

Legend:
[1] = molecular target: CD40 on mouse splenic B cells (mouse) (UniProt P27512); test: cell-based or functional assay
[2] = molecular target: recombinant murine CD40L (M112-L260) with N-terminal HA tag (murine); test: loading of HA-tagged CD40L on anti-HA antibody microbeads; protein in the supernatant (A280) measured before and after incubation

UniProt P27512, sequence (P27512 20-289): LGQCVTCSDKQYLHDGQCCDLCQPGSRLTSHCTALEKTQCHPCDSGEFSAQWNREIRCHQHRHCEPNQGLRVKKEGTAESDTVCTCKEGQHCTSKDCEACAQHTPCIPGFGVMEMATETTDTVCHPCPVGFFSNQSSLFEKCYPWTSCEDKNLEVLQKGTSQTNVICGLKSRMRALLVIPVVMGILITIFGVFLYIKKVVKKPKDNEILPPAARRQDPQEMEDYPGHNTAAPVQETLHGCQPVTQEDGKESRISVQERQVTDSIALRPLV

anti-CD40 antibody (clone 1C10, eBioscience)
cell viability on Day 6 of B cells activated by αCD40 [1]: 2 to 5%

anti-HA peptide antibody covalently attached to superparamagnetic microbeads (Pierce)
maximum surface density of CD40L on anti-HA microbeads (molecules µm^-2) [2]: 27000
